Key:
[1] = target: NC1A-CBD (construct 12); test: cell-based or functional assay
[2] = target: T1, NC1A-CBD (construct 12); test: capture from E. coli lysate on chitin-bound NC1A-CBD, 0.5 mM ZnCl2, SDS-PAGE densitometry
T1 construct: free in solution in the kinetic assays
Method: Sample purification via SIRP (FIG. 14): A disposable column containing 150 μL chitin resin was loaded with soluble lysate containing NC1A-CBD in Buffer A (0.5 M NaCl, 10 mM Tris-HCl, pH 8.0) and washed 4 times with 10 column volumes (CV) of Buffer B (0.5 M NaCl, 50 mM NaPOi, pH 6.0). All loading and washing steps were performed in batch phase. The last wash was supplemented with 0.5 mM ZnCl₂. […] The column was subsequently washed with 10 CV of Buffer B with ZnCl₂ (0.5 mM) and finally incubated in 4 CV of Buffer A containing 50 mM DTT at room temperature for 30 min or at 6° C. for 3 h.

[3] = target: T2, ELP-N (construct 5); test: lysates mixed 10 min at room temperature, 0.4 M ammonium sulfate precipitation of the ELP complex, SDS-PAGE
T2 construct: also called ELP intein N-fragment

[4] = target: T2, ELP-N (construct 5); test: co-precipitation with ELP-N by ammonium sulfate

Binder	percent of PTDH cleaved from C*-PTDH within 30 seconds, 1:1 molar ratio, 50 mM DTT, 22 C and 6 C [1] [%]	molar ratio of bound C*-POI to NC1A-CBD [2] [molar ratio]	binding result [3]	binding result [4]
C*-PTDH (construct 6) (other, also called NpuDnaE C-fragment Asp118Gly fused to phosphite dehydrogenase) MIKIATRKYLGKQNVYGIGVERDHNFALKNGFIASNCFNASMLPKLVITHRVHEEILQLLAPHCELITNQTDSTLTREEILRRCRDAQAMMAFMPDRVDADFLQACPELRVIGCALKGFDNFDVDACTARGVWLTFVPDLLTVPTAELAIGLAVGLGRHLRAADAFVRSGKFRGWQPRFYGTGLDNATVGFLGMGAIGLAMADRLQGWGATLQYHARKALDTQTEQRLGLRQVACSELFASSDFILLALPLNADTLHLVNAELLALVRPGALLVNPCRGSVVDEAAVLAALERGQLGGYAADVFEMEDWARADRPQQIDPALLAHPNTLFTPHIGSAVRAVRLEIERCAAQNILQALAGERPINAVNRLPKANPAADLEHHHHHH	~50	0.35	binds	–
C*-CAT (construct 9) (other, also called C*-chloramphenicol acetyl transferase) MIKIATRKYLGKQNVYGIGVERDHNFALKNGFIASNCFNASMEKKITGYTTVDISQWHRKEHFEAFQSVAQCTYNQTVQLDITAFLKTVKKNKHKFYPAFIHILARLMNAHPEFRMAMKDGELVIWDSVHPCYTVFHEQTETFSSLWSEYHDDFRQFLHIYSQDVACYGENLAYFPKGFIENMFFVSANPWVSFTSFDLNVANMDNFFAPVFTMGKYYTQGDKVLMPLAIQVHHAVCDGFHVGRMLNELQQYCDEWQGGALEHHHHHH	–	–	–	binds

— patent publication US20150353597A1 (TEXAS A AND M UNIVERSITY SYSTEM, published 2015)
